In patent US7098012B1, “DNA demethylase, therapeutic and diagnostic uses thereof” (McGill University, priority 1997, dated 2006):

B1: proteinase K: proteinase K (Sigma) used to pretreat DNA dMTase (protein, UniProt P06873 106-384, looked up)
Proteinase K: AAQTNAPWGLARISSTSPGTSTYYYDESAGQGSCVYVIDTGIEASHPEFEGRAQMVKTYYYSSRDGNGHGTHCAGTVGSRTYGVAKKTQLFGVKVLDDNGSGQYSTIIAGMDFVASDKNNRNCPKGVVASLSLGGGYSSSVNSAAARLQSSGVMVAVAAGNNNADARNYSPASEPSVCTVGASDRYDRRSSFSNYGSVLDIFGPGTSILSTWIGGSTRSISGTSMATPHVAGLAAYLMTLGKTTAASACRYIADTANKGDLSNIPFGTVNLLAYNNYQA
B2: RNase: RNase A (Sigma) used to treat column fractions (protein, UniProt P61823 27-150, looked up)
Ribonuclease pancreatic: KETAAAKFERQHMDSSTSAASSSNYCNQMMKSRNLTKDRCKPVNTFVHESLADVQAVCSQKNVACKNGQTNCYQSYSTMSITDCRETGSSKYPNCAYKTTQANKHIIVACEGNPYVPVHFDASV

System: DNA dMTase
Assay: Demethylation of [mdC32pdG]n substrate (conversion of mdCMP to dCMP) with additives or pretreatment
Assay type: biochemical, human
Conditions: transformation of mdC to C or release of volatile methyl residues; proteinase K 200 μg/ml 1 h 56° C.; RNase A 100 μg/ml
Experimental: (A) To assay the conversion of methyl-dCMP (mdCMP) to dCMP we used a previously described method (Szyf et al., 1995). Briefly, α^32P labeled, fully methylated poly[mdC^32PdG]n substrate was prepared as follows. One hundred ng of a double-stranded fully methylated (mdCpdG) oligomer (Pharmacia) were denatured by boiling, which was followed by partial annealing at room temperature. The complementary strand was extended with Klenow fragment (Boehringer Mannheim) using methyl-5-dCTP (mdCTP, 0.1 mM) (Boehringer Mannheim) and […] (100 μCi, 3000 Ci/mmol), and the unincorporated nucleotides were removed by chromatography through a NAP-5 column (Pharmacia). The NAP-5 chromatography was repeated to exclude minor contamination with unincorporated nucleotides. […] The digestion products were loaded onto a thin layer chromatography plate (TLC) (Kodak, 13255 Cellulose), separated in a medium containing, 132 ml Isobutyric acid:40 ml water:4 ml ammonia solution, autoradiographed and the intensity of the different spots was determined using a phosphorimager (Fuji, BAS 2000). ^32P labeled substrates and tritium labeled substrates were phosphoimaged using BAS 2000 plate and BAS-TR2040 phosphorimager plate respectively. (B) The second method determined removal of methylated residues from methylated DNA by measuring disappearance of ^3H—CH3 or ^14C—CH3 from the reaction mixture. […]

| Molecule | DNA dMTase activity after enzyme treatment |
| --- | --- |
| B1 | abolished |
| B2 | not inhibited but rather enhanced |
